Where two headings read alike, the source gives them in different places.
Legend:
[1] = test system: single-stranded DNA binding protein (SSB, BP), immobilized (Escherichia coli); conditions: BP 0.2 mg/ml on Immobilon membrane; 10-1000 pg DNA in 10 mg/ml BSA; 80% captured with BP at 1 mg/ml
[2] = test system: single-stranded DNA binding protein (SSB, BP), immobilized (Escherichia coli); conditions: BP 50 ug/ml adsorbed on nitrocellulose, BSA blocked; sample in 10 mg/ml BSA

**Q.** Which binding signal [1] does the source give for 32P-labeled single-stranded DNA here?
**A.** The binding signal was 70 % captured.

**Q.** And the binding signal [2]?
**A.** The binding signal was 36 % captured.

From patent US4978608
